System: hMSCs
Assay: Serum starvation study of PDGF-BB bioactivity (cell proliferation)
Assay type: cell-based, human
Conditions: Invitrogen versus Prospec Bio
Experimental: At the initiation of this study, arbitrarily called “Day −2”, a vial of hMSCs was thawed, resuspended in 10% FBS DMEM, and seeded into 96 well TCPS plates at a seeding density of 12,500 cells/cm2 or 4000 cells/well. On “Day −1”, 24 hours following the initial cell seeding, the media in the wells was changed with DMEM prepared with various concentrations of FBS (Table 6). On Day 0, the media was supplemented with various concentrations of PDGF-BB (Prospec Bio or Invitrogen). PDGF-BB supplementation was done either once at Day 0, or continually for every 48-72 hours until Day 7.
At Days 4 and 7 following growth factor induction, cells were harvested for cell proliferation assay. Briefly, cell lysates (n=3 per media and PDGF-BB condition) were prepared by lysing cells in 0.1% Triton X-100. The PicoGreen reagent fluorescently labels double stranded DNA which was correlated to cell number using a standard curve. The PicoGreen reagent was added to the cell lysates and the fluorescence was detected with a plate reader at 485 nm excitation/528 nm emission.

B1: PDGF-BB from Invitrogen: Recombinant human PDGF-BB purchased from Invitrogen, used for subsequent studies (protein, UniProt P01127 82-190, looked up)
Platelet-derived growth …: SLGSLTIAEPAMIAECKTRTEVFEISRRLIDRTNANFLVWPPCVEVQRCSGCCNNRNVQCRPTQVQLRPVQVRKIEIVRKKPIFKKATVTLEDHLACKCETVAAARPVT
  bioactivity of PDGF-BB (cell proliferation studies): more bioactive
